{
  "source": "paper PMC10716122",
  "key": {"TRIM41": {"target": "TRIM41 (UniProt Q8WV44)", "test": "co-immunoprecipitation", "details": "reference: wild-type cGAS"}, "[1]": {"target": "LINE-1 (L1) ORF1p (human) (UniProt Q9UN81)", "test": "not stated; formation of the ORF1p trimer with or without cGAS, Supplementary Fig. 2o; method not given"}},
  "data": [
    {"substance": "cGAS (from UniProt Q8N884) S120A", "values": [
      {"measurement": "binding against the reference", "setting": "TRIM41; sites S120", "value": "weaker"}
    ]},
    {"substance": "cGAS (from UniProt Q8N884) S305A", "values": [
      {"measurement": "binding against the reference", "setting": "TRIM41; sites S305", "value": "weaker"}
    ]},
    {"substance": "LINE-1 (L1) ORF1p (from UniProt Q9UN81 1-338) (natural protein)", "values": [
      {"measurement": "stoichiometry N", "setting": "[1]", "value": 3}
    ]}
  ]
}
